Data from article PMC9200632 (2022).

Biological target: T1, MBP–FlaA (C. jejuni flagellin FlaA, amino acids 177–482) (C. jejuni, biotinylated (EZ-Link NGS-PEG4-Biotin kit) in the BLI)
T1 chain: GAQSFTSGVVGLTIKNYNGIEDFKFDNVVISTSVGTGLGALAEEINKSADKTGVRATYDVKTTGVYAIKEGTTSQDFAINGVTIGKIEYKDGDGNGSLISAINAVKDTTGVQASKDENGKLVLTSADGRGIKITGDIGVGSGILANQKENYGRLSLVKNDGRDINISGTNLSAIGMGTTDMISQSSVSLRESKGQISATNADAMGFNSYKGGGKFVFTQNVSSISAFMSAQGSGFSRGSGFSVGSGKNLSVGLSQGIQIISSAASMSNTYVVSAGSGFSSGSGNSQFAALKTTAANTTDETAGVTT
Test: BLI

B1: aa682 (VHH)
VHH: QVQLVESGGGLVQAGGSLRVSCTASVSTFSINALGWYRQAPGKARELVAAIGSDGTVYYTDSVKGRFTISRDNAKNTVSLQMSSLKPEDTAVYYCNAAGKRIGSDGSIWFAVASFGSWGQGTQVTVSS
- koff: 0.024 s⁻¹
